The results in this text go back to IntAct's records for PubMed 26235546.

Assay [1] concerns the target pspf_ecoli pspF (UniProt P37344).
Assay [2] has the same target. This is another data set of the same source.

Chain of pspf_ecoli pspF (P37344 whole entry): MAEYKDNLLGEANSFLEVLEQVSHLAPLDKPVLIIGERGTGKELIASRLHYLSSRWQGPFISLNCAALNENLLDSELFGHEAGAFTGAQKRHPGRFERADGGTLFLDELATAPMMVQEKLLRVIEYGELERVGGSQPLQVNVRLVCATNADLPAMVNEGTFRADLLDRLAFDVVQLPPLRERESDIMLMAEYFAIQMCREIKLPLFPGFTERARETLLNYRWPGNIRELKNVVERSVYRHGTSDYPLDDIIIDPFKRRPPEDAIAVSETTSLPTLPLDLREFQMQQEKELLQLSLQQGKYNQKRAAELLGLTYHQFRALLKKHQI

As to “Phage shock protein A (Escherichia coli (strain K12)) (from UniProt P0AFM6) E37A”, the figures for the “effect of a mutation on the interaction” value in assay [1] and in assay [2] were “with no effect” and “decreasing interaction strength”, respectively.

Turning to “Phage shock protein A (Escherichia coli (strain K12)) (from UniProt P0AFM6) R59E”, in assay [2], the “effect of a mutation on the interaction” value is on record as “with no effect”.
